Laboratory results as given in paper PMC8654239, “The neutrophil protein CD177 is a novel PDPN receptor that regulates human cancer-associated fibroblast physiology” (PLoS ONE, 2021).
Each block holds one molecule with its values, some of them ahead of it.

Assays:
[1] = biological target: PDPN ectodomain, monomeric, Avi-tagged, site-specifically biotinylated (Fc tag removed) (human) (UniProt Q86YL7)
[2] = biological target: CD177 recombinant ectodomain, Fc-tagged (human) (UniProt Q8N6Q3); assay: SPR; CLEC-2 or CD177 ectodomains immobilised by amine coupling, 300-400 resonance units; Avi-tagged monomeric PDPN ectodomain as analyte; equilibrium fit for CD177, Langmuir model for CLEC-2
Sequence of CD177 recombinant ectodomain, Fc-tagged (human) (Q8N6Q3 22-408): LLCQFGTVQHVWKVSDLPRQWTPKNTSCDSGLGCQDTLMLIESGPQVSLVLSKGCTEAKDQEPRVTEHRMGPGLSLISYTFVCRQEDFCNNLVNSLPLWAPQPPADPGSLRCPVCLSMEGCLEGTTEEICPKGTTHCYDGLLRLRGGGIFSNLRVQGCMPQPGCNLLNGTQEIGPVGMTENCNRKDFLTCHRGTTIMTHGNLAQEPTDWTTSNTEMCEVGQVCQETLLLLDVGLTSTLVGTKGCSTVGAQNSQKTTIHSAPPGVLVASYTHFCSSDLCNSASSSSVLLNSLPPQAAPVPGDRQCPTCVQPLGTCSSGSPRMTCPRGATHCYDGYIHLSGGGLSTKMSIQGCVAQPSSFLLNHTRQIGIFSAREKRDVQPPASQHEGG

[3] = biological target: T1, CLEC-2 recombinant ectodomain, Fc-tagged (human, UniProt Q9P126 55-229); assay: as above; conditions: both partners purified
T1 construct: C-type lectin receptor CLEC-2 (CLEC1B), human, ectodomain; The methods describe a general pRK5 vector with a C-terminal human Fc tag; CLEC-2 is a type II membrane protein, so the real end of the Fc may differ; also called Clec1b; recombinant human CLEC-2
T1 sequence (Q9P126 55-229): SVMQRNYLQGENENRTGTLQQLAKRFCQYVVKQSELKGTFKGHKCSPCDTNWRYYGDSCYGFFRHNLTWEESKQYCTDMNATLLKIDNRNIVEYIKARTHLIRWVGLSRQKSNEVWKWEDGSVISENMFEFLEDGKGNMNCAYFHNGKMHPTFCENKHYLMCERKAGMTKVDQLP

[4] = biological target: T1, CLEC-2 recombinant ectodomain, Fc-tagged; assay: SPR; CLEC-2 or CD177 ectodomains immobilised by amine coupling on GLC (Proteon XPR36) or CM5 (Biacore 3000) chips; Avi-Fc-tagged PDPN as soluble analyte at the indicated concentrations; PBS with 0.01% Tween-20 (Proteon) or HBS-P pH 7.4 (Biacore); conditions: both partners purified

inhibition of CAF contractility (gel contraction assay) by recombinant CD177 [1]: 20%
Molecule: CD177 recombinant ectodomain, Fc-tagged (from UniProt Q8N6Q3 22-408) (Fc fusion)

Kd [2]: 3300 nM
Kd [3]: 210 ± 0.3 nM
B1: PDPN ectodomain, monomeric, Avi-tagged, site-specifically biotinylated (Fc tag removed) (domain or fragment, human, UniProt Q86YL7 23-131, looked up)
chain: ASTGQPEDDTETTGLEGGVAMPGAEDDVVTPGTSEDRYKSGLTTLVATSVNSVTGIRIEDLPTSESTVHAQEQSPSATASNVATSHSTEKVDGDTQTTVEKDGLSTVTL
modifications: biotin on the Avi tag (site-specific, in vitro, BirA)
notes: podoplanin (PDPN), human, ectodomain; the methods describe biotinylation of the Avi-tagged product after removal of the Fc; Also used here as the PDPN of the functional rows (there PDPN is endogenous on fibroblasts); also called podoplanin; gp38; source: mammalian cells, purified; biotinylated in vitro with BirA; not shown: Fc (human IgG1), C-terminal, cleaved

binding result [4]: binds
B2: PDPN ectodomain, Avi-Fc-tagged (Fc fusion, human, UniProt Q86YL7 23-131, looked up)
chain: ASTGQPEDDTETTGLEGGVAMPGAEDDVVTPGTSEDRYKSGLTTLVATSVNSVTGIRIEDLPTSESTVHAQEQSPSATASNVATSHSTEKVDGDTQTTVEKDGLSTVTL
notes: podoplanin (PDPN), human, ectodomain; pRK5 vector with C-terminal human IgG1 Fc; also called Avi-Fc-tagged PDPN; AviFc-tagged PDPN; source: mammalian cells, purified; not shown: Fc (human IgG1), C-terminal, kept
